Assay results from patent publication US9163227B2, “Anti-diabetic compounds” (PFIZER INC., priority 2011, dated 2015).
Numbering of substitutions follows the chain as printed. Names and notes keep the numbering of the source. Like-named read-outs stand apart in the source and are kept apart here. Marks after values point to notes of the source that are not given here.

How the values were obtained:
[1] = tested on: SCD1, MOGAT2, FoxA2 mRNA in liver; experiment: Hepatic gene expression (qPCR) in ob/ob mice; assay type: in vivo; conditions: day 6, 1 mg/kg QD
[2] = target: differentiated 3T3-L1 adipocytes (Mus musculus, UniProt P16092+Q99N32); experiment: Glucose uptake assay; assay type: cell-based; conditions: unconjugated protein (per Examples 18-21); n in parentheses
Sequence of differentiated 3T3-L1 adipocytes (P16092 22-822): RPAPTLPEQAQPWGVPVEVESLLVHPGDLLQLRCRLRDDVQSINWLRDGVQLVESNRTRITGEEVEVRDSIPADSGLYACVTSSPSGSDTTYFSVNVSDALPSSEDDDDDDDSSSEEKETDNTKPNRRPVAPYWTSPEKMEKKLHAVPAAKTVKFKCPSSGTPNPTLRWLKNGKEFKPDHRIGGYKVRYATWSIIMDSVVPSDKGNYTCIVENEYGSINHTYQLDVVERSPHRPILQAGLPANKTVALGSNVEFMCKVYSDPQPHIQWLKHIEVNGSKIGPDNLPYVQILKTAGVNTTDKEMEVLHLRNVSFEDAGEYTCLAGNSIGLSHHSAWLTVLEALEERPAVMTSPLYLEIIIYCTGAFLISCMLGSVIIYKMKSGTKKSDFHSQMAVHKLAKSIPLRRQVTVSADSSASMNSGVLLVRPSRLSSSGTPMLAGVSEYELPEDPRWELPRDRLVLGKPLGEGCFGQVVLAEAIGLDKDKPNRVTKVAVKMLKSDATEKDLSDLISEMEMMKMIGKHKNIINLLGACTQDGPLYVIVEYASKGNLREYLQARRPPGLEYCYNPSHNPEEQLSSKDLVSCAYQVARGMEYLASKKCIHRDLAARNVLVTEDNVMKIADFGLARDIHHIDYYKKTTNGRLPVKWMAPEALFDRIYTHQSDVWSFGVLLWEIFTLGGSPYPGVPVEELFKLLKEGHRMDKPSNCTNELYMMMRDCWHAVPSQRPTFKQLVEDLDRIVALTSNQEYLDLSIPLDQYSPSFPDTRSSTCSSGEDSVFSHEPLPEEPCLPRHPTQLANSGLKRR
Sequence of differentiated 3T3-L1 adipocytes (Q99N32 whole entry): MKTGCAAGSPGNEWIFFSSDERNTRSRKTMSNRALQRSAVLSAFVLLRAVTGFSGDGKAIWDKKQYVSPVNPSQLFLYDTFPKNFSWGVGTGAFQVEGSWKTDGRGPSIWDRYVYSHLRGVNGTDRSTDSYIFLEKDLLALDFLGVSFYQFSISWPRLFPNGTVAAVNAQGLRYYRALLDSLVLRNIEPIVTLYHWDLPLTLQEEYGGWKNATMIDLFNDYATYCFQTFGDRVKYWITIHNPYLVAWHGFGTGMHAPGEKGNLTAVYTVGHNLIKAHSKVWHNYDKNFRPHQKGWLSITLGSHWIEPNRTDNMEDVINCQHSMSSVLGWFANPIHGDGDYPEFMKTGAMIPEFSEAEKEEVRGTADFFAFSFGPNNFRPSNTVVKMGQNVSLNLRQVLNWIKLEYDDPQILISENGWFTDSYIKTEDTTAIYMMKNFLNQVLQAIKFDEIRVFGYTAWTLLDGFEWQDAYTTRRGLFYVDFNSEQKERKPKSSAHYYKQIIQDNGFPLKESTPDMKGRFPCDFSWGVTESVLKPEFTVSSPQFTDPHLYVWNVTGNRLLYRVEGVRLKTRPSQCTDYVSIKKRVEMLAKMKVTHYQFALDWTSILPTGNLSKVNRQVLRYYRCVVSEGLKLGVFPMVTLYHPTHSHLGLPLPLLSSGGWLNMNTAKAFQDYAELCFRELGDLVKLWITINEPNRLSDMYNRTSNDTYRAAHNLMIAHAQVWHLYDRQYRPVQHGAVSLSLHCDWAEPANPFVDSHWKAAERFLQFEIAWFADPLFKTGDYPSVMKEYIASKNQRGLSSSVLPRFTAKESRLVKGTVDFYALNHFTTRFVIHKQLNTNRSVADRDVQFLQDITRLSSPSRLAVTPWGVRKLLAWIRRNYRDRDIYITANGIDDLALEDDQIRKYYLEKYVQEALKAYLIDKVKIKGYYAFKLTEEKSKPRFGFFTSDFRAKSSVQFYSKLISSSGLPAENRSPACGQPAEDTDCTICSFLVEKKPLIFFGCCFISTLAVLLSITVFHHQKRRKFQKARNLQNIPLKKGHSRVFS
Description: Differentiated 3T3-L1 adipocytes were treated with compounds in the absence of serum for 24 hrs. Cells were then incubated with ^14C-2-deoxyglucose for 1 hr and glucose uptake into the cells was quantitated in Wallac 1450 MicroBeta (Trilux) instrument. Glucose uptake was expressed in counts per min (CPM). EC50 values as measurements of the potency of the compounds were obtained from the dose response curves in the assay.

[3] = tested on: high-fat diet-induced obese mice; experiment: Oral glucose tolerance test in DIO mice (FGF21 conjugates); assay type: in vivo; conditions: day 10, 1 mg/kg QD
Description: (§1) The efficacy of FGF21 antibodies conjugates was evaluated in two murine obese insulin resistant models—ob/ob mice and high-fat diet-induced obese mice. For both models, male mice (6-8 weeks of age for ob/ob, 12-14 weeks of age for DIO with high-fat diet initiated at 6 weeks of age) were housed 2-4/cage and FGF21 antibody conjugates were administered by SC injection. Body weight was measured daily in the morning. Glucose tolerance was assessed by oral glucose tolerance test. Briefly, mice were fasted for 4-5 hrs in the morning of the day of testing. A basal blood sample was obtained and blood glucose levels were determined using a portable glucometer.

[4] = target: Glut1 mRNA expression in differentiated 3T3-L1 adipocytes (Mus musculus, UniProt P16092+Q99N32); experiment: Glut1 Taqman assay; assay type: cell-based
Sequence of Glut1 mRNA expression in differentiated 3T3-L1 adipocytes (P16092 22-822): as the sequence (P16092 22-822) above
Sequence of Glut1 mRNA expression in differentiated 3T3-L1 adipocytes (Q99N32 whole entry): as the sequence (Q99N32 whole entry) above
Description: Differentiated 3T3-L1 adipocytes were used to measure the Glut1 mRNA expression by qPCR method. Overnight serum starved day 10-14 differentiated 3T3-L1 adipocytes were treated with compounds for 6 hrs. Total RNA was extracted from these cells, and Glut1 and GAPDH mRNA expression was measured using a Quantitect Probe RT-PCR kit and running a quantitative real time PCR reaction in a Taqman machine (Applied Biosystems®). The bioactivity of the compounds was determined by a fold change in Glut1 mRNA levels normalized by the GAPDH mRNA levels from each sample. EC═values as measurements of the potency of the compounds were obtained from the dose response curves in the assay.
3T3-L1 adipocytes were seeded at day 8 in 24-well tissue culture plates (Falcon®, Cat#353047), and incubated in DMEM complete medium (10% FBS, 2 mM L-glutamine, 1% P/S) at 37° C., 5% CO2. […] The medium was aspirated, and then RNA extracted from the cells using the RNeasy mini Kit according to the manufacturer's instructions. RNA was measured at A260 nm using the Spectramax® Plus spectrophotometer.
In Glut1 Taqman assay, differentiated 3T3-L1 adipocytes were used to measure the Glut1 mRNA expression by real-time quantitative PCR (qPCR) method described below. Overnight serum starved day 10-14 differentiated 3T3-L1 adipocytes were treated with compounds for 6 hrs. Total RNA was extracted from these cells, and Glut1 and GAPDH mRNA expression was measured using a Quantitect Probe RT-PCR kit and running a real time quantitative PCR reaction in a Taqman machine. The bioactivity of the compounds was determined by a fold change in Glut1 mRNA levels normalized by the GAPDH mRNA levels from each sample. In cAMP assay, Chinese hamster ovary (CHO) cells over-expressing human GLP-1R(CHO-hGLP-1R) were seeded in 96-well plates in serum-free medium with 300 uM IBMX. Cells were incubated with compounds at RT for 1 hr. The cAMP levels were measured using a CisBio cAMP Kit according to manufacturer's instructions. The bioactivity of the compounds was determined by the EC50 values obtained from the assay (see Table 42).

[5] = Mouse pharmacokinetics of FGF21 antibody conjugates; assay type: in vivo, Swiss-Webster mice; conditions: mouse PK; antibody conjugate at the named site (protein for FGF21ΔH)
Description: The PK of FGF21 antibody conjugates were examined in mice after IV or SC administration. […] Antibody conjugates concentrations in serum were determined using an ELISA which captured the FGF21 portion of the antibody conjugates through a monoclonal anti-hFGF21 antibody bound to a 96-well plate. FGF21 antibody conjugates bound to the plate were detected through an anti-hFc monoclonal antibody, and concentrations were determined using a standard curve of the PK dosing solution diluted into serum-containing assay buffer. SC bioavailability was calculated as the ratio of the area-under the curve (AUC) of the SC serum concentration profile divided by the AUC of the IV serum concentration profile.

[6] = tested on: ob/ob mice; experiment: Oral glucose tolerance test in ob/ob mice (FGF21 conjugates); assay type: in vivo; conditions: for mean glucose AUC % during OGTT: FIG. 6B; for Mean Glucose AUC (% of vehicle control) during OGTT: FIGS. 4A/4B
Description: as §1

[7] = tested on: high-fat diet-induced obese mice; experiment: Serum lipids in DIO mice; assay type: in vivo; conditions: day 10, 1 mg/kg QD
[8] = Body weight and liver weight in ob/ob mice; assay type: in vivo; conditions: for mean liver weight: FIG. 5B
Description: as §1

[9] = Stability assay of FGF21ΔH-D79C; assay type: physicochemical
Description: FGF21ΔH-D790 mutant protein was produced in E. coli and purified as described above. FGF21ΔH-D790 was expressed from 1 L of culture. A 150 mg inclusion body was obtained and 85 mg purified protein was obtained, representing a 60% yield. To test the stability of FGF21ΔH-D790 as well as FGF21ΔH (SEQ ID NO:2), freshly thawed samples were kept at 4° C. over seven days, and examined for their integrity by RP-HPLC, SEC_HPLC, Ellman assay and SDS-PAGE on day 0, 3 and 7. […] PBS (pH7.4) and 20 mM Tris-HCl 50 mM NaCl (pH7.5) made no significant difference of stability of FGF21ΔH-D79C.
It is possible that the solubility of FGF21ΔH-D79C may be reduced at pH6.0. The stability of FGF21ΔH-D79C was examined upon multiple freeze/thaw cycles. The proteins were repeated to freeze (−80 C) and thaw (4° C.) 9 times.

[10] = tested on: DIO mice; experiment: Sub-chronic and single dose efficacy of ABC-1 in DIO mice (body weight, food intake, OGTT, cholesterol, liver triglycerides); assay type: in vivo; conditions: Table 54: DIO mice, single SC 0.6 mg/kg
Description: Sub Chronic Dose Efficacy. […] All compounds were dosed SC once weekly, body weight and food intake was measured twice weekly, and an OGTT was conducted on day 17, 3 days after the 3rd weekly dose. On day 20, liver and serum samples were collected for lipid analysis.
All compounds were administered SC on day 0, body weight was measured twice weekly, and OGTT was conducted on day 7, 13, and 21. […] The sustained efficacy of the ABC-1 in vivo supports once weekly dosing of the compound.
Sub Chronic Dose Efficacy. […] All compounds were administered SC once weekly. Body weight was measured twice weekly, and an OGTT was conducted 3 days after the 3rd weekly dose.

B1: FGF21ΔH: FGF21 with H1 absent, L146 (SEQ ID NO:2), produced from E. coli (protein, listed as Homo sapiens)
chain: PIPDSSPLLQFGGQVRQRYLYTDDAQQTEAHLEIREDGTVGGAADQSPESLLQLKALKPGVIQILGVKTSRFLCQRPDGALYGSLHFDPEACSFRELLLEDGYNVYQSEAHGLPLHLPGNKSPHRDPAPRGPARFLPLPGLPPALPEPPGILAPQPPDVGSSDPLSMVGPSQGRSPSYAS
Question: What does the source list for B1?
Answer: Mean fold change of mRNA expression, FoxA2 (SEM) [1]: 1.23 (0.08) fold; Mean fold change of mRNA expression, MOGAT2 (SEM) [1]: 0.37 (0.05)** fold; Mean fold change of mRNA expression, SCD1 (SEM) [1]: 0.95 (0.06) fold; EC50 [2]: 12 nM; Glucose AUC during OGTT (% of vehicle control) [3]: 75*** % of vehicle control; activity in Glut1 Taqman assay (in words) ([4]; 3T3-L1 adipocytes): dose-dependent Glut1 induction; EC50 ([4]; 3T3-L1 adipocytes, serum-free DMEM 0.2% BSA, 6 hrs, Taqman quantitative real-time PCR, read-out: Glut1 RNA expression EC50): 3.39 nM; EC50 ([4]; unconjugated FGF21 mutant protein, n in parentheses, read-out: Glut1 Taqman unconjugated Protein EC50): 2.3 nM; % SC BioAv [5]: 96%; IV T1/2 [5]: 24 min; SC T1/2 [5]: 30 min; mean glucose AUC % during OGTT ([6]; ob/ob mice, single dose, dose not given): 63%; Mean Glucose AUC (% of vehicle control) during OGTT ([6]; ob/ob mice, single SC dose 0.6 mg/kg): 103 % of vehicle control; Mean Glucose AUC (% of vehicle control) during OGTT ([6]; ob/ob mice, single SC dose 1 mg/kg): 74 % of vehicle control; Mean Glucose AUC (% of vehicle control) ([6]; ob/ob mice, OGTT on day 6, 1 mg/kg QD): 61** % of vehicle control; Glucose AUC during OGTT (% of vehicle control) ([6]; ob/ob mice, day 6, 1 mg/kg QD): 67*** % of vehicle control; GTT* (% AUC of Ctrl) ([6]; protein, 1 mg/kg Qd): 67 % AUC of Ctrl; Mean values of serum lipids NEFA (mM) (SEM) [7]: 0.40 (0.04) mM; Mean values of serum lipids TG (mg/dL) (SEM) [7]: 92 (9.6)** mg/dL; Cumulative body weight change, mean body weight ([8]; FIG. 5A, single SC dose 0.6 mg/kg): 3.2 g; Cumulative body weight change, mean body weight ([8]; FIG. 5A, single SC dose 1 mg/kg): 2.5 g; mean liver weight ([8]; single SC dose 0.6 mg/kg): 2.4 g; mean liver weight ([8]; single SC dose 1 mg/kg): 2.2 g; Cumulative body weight change, mean body weight ([8]; FIG. 6A, single dose, dose not given): 1.9 g

B2: FGF21ΔH-D79C: FGF21 cysteine mutant, SEQ ID NO:12 (protein, listed as Homo sapiens)
chain: B1 chain with D78C
Question: With B2 as the molecule, how does the EC50 ([4]; differentiated 3T3-L1 adipocytes, 6 hrs, protein or antibody conjugate as labelled, read-out: Glut1 Taqman assay EC50) read?
Answer: 2.1 nM

Question: What about the “stability upon freeze/thaw cycles” value ([9]; freeze (−80 C) and thaw (4° C.) 9 times, RP-HPLC, SEC and Ellman assay) of the same molecule?
Answer: Neither sample showed any difference between cycle 1 and cycles 9

Question: And the “stability (oxidation, dimerization)” value ([9]; neutral pH 7.4, 4° C., seven-day incubation)?
Answer: stable

Question: What about the portion oxidized ([9]; pH 6.0, 4° C., three-day incubation) of the same molecule?
Answer: more than half

Question: And the “mean glucose AUC % during OGTT” value ([6]; ob/ob mice, single dose 10 mg/ml (so in the source))?
Answer: 54%

Question: And the “Cumulative body weight change, mean body weight” value ([8]; FIG. 6A, single dose 2 mg/kg)?
Answer: 2.1 g

B3: FGF21: Fibroblast growth factor (FGF) 21, wild type (protein, listed as Homo sapiens)
chain: B1 chain
Question: Which EC50 ([4]; Glut1 Taqman, 3T3-L1 adipocytes, 6 hrs, read-out: FGF21 (Glut1) EC50) does the source give for B3 here?
Answer: 2.1 nM

Question: And the “Mean Body Weight Change (g) (SEM)” value ([10]; Day 7)?
Answer: +1.4 g

Question: And the “Mean Glucose AUC (% of vehicle control)” value ([10]; OGTT Day 7)?
Answer: 99 % of vehicle control
